These results are taken from patent CN115819596A.

The target of the experiment is 食蟹猴CEACAM6蛋白 (cynomolgus CEACAM6 protein) (cynomolgus monkey). The experiment in a line: ELISA, plate-coated cynomolgus CEACAM6 protein. (An ELISA detects its analyte on a solid surface through an enzyme-linked reagent.)

B1: UM05-L9 (antibody, human IgG1, kappa, V domains shown)
VH: QVQLQQSGPELVRPGVSVKISCKGSGYTFTDYAMHWVKQSHAKSLEWIGVISTYSGHTNYNQKFKGKAIMTVDKSSSTAYMDLARLTSEDSAIYYCVRGSTTAHYYTMDFWGQGTSVTVSS
VL: DIQMTQSPVSLSASVGETVTITCGASENIYGTLNWYQRKQGKSPQLLIYGATNLADGVSSRFSGSGSGRQYSLKISSLHPDDVATYYCQNVLSIPYTFGGGTKLEIKR
The EC50 is the concentration that produces a half-maximal response. A low value points to higher potency in that assay. Take B1: the EC50 was found to be 0.463 nM.
